Data published in patent publication US9096835B2, “DNA polymerase” (Medical Research Council, priority 2003, dated 2015).
Values joined by “and” are separate entries in the source; they are usually repeats but may differ in a detail not shown here. Equal entries are not always repeated.

Tests used:
[1] = system: primer-template duplex, correct or incorrect incoming dNTP; assay: Steady-state single nucleotide incorporation kinetics, gel-based assay; assay type: biochemical
Method: Kinetic parameters were determined using a gel-based assay essentially as described (16). Primers 15, 16, 17 (3′ base=G, C, A respectively) were ^32P-labeled and annealed to one of template strands 18, 19, 20 (template base=C, G, A respectively) or 21 (template base C different context). Duplex substrates were used at 50 nM final concentration in 1× Taq buffer with various concentrations of enzyme and dNTP. Reactions were carried out at 60° C. for times whereby <20% of primer-template was utilized at the highest concentration of dNTP.
Extension and incorporation kinetics of M1 and M4 for a selection of mismatches were measured using a gel-based steady-state kinetic assay (Goodman) (Tables 1 & 2). M1 and M4 respectively extend a C•C mispair 390 and 75-fold more efficiently than wtTaq. […] The gain in extension efficiency derives predominantly from increased relative Vmax values for the mutant polymerases, while Km for nucleotide substrates remains largely unchanged. For most DNA polymerases the relative efficiency of extending a given mispair (f0ext) is similar to the relative efficiency of forming it (finc) (Goodman 1993, Goodman 1990, Washington 2001). Indeed, M1 and M4 respectively incorporate dCTP opposite template base C 206- and 29-fold more efficiently than wtTaq (Table 2).

[2] = system: template containing a cis-syn cyclobutane thymine-thymine dimer (CPD); assay: Translesion replication assay (primer extension), CPD; assay type: biochemical; settings: gel-extension assay, 60° C.
Method: (§1) Template primers 22 (undamaged) or 23 (containing a synthetic abasic site) were synthesized by Lofstrand Laboratories (Gaithersburg, Md.). Template primer 24 (containing a single cis-syn thymine dimer), was synthesized as described (34). Primer 25 was ^32P-labeled and annealed to one of the three templates 22, 23, 24 (at a primer template ratio of molar 1:1.5) and extended in 40 mM Tris.HCl at pH 8.0, 5 mM MgCl2, 100 μM of each dNTP, 10 mM DTT, 250 μg/ml BSA, 2.5% glycerol, 10 nM primer-template DNA and 0.1 Unit of polymerase at 60° C. for various times.
Primer extension assays were essentially as described in (Ghadessy et al., 2004). Briefly, undamaged oligonucleotides and a 51mer containing a synthetic abasic site were synthesized by Lofstrand Laboratories (Gaithersburg, Md.) using standard techniques and were gel purified prior to use. A 20mer primer (LES—20 P) with the sequence 5′-[…]-3′ (SEQ ID NO: 99) was 5′-labeled with [^32P]ATP (5000 Ci/mmole; 1 Ci=37 GBq) (Pharmacia) using T4 polynucleotide kinase (Invitrogen, Carlsbad Calif.). Radiolabeled primer-template DNAs were prepared by annealing the 5′[^32P] labeled 20mer primer to one of the two following 51mer templates (at a primer template ratio of molar 1:1.5). 1) undamaged DNA (UNDT51T); 5′-AGCTACCATGCCTGCACGAATTCGGCATCCGTCGCGACCACGGTCGCAGCG-3′ (SEQ ID NO: 100); 2) an oligo (LABA51T) containing a synthetic abasic site (indicated as an X in bold font); 5′-AGCTACCATGCCTGCACGACA XCG GCATCCGTCGCGACCACGGTCGCAGCG-3′ (SEQ ID NO: 101). Standard replication reactions of 10 contained 40 mM Tris.HCl at pH 8.0, 5 mM MgCl2, 100 μM of each ultrapure dNTP (Amersham Pharmacia Biotech, NJ), 10 mM DTT, 250 μg/ml BSA, 2.5% glycerol, 10 nM 5′[32P] primer-template DNA and 0.1 Unit of polymerase. After incubation at 60° C. for various times reactions were terminated by the addition of 10 μl of 95% formamide/10 mM EDTA and the samples heated to 100° C. for 5 min. Reaction mixtures (5 μl) were subjected to 20% polyacrylamide/7 M Urea gel electrophoresis and replication products visualized by PhosphorImager analysis.

[3] = target: matched and mismatched primer-template duplex; assay: Template affinity equilibrium binding assay; settings: not shown
Method: An equilibrium binding assay (12) was used to determine relative affinity of polymerases for the mismatched primer-templates used in the kinetics assays. Polymerases were preincubated at 60° C. in 1× Taq buffer with 50 nM ^32P-labeled matched primer-template and 50 nM unlabeled mismatched competitor primer-templates. Reactions were initiated by simultaneous addition of dCTP (200 μM) and trap DNA (XbaI/SalI-restricted sheared salmon sperm DNA, 4.5 mg/ml).

[4] = system: template containing an abasic site; assay: Translesion replication assay (primer extension), abasic site; assay type: biochemical; settings: gel-extension assay, 60° C.
How it was run: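 A 5′-^32P-labelled 20mer primer was annealed (1:1.5) to 51mer templates bearing an abasic site or a cis-syn thymine dimer, 10 nM in final reactions. Extension ran in 40 mM Tris·HCl pH 8.0, 5 mM MgCl2, 100 μM each dNTP, 0.1 U polymerase at 60 °C for various times. Products were resolved on 20% urea-PAGE and imaged by PhosphorImager.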

undamaged template = assay: Translesion replication assay, control; assay type: biochemical; settings: gel-extension assay, 60° C.
Method: as §1

B1: M4: Taq mutant D58G, R74P, A109T, L245R, R343G, G370D, E520G, N583S, E694K, A743P; SEQ ID NO 2 (protein)
chain: MRGMLPLYEPKGRVLLVDGHHLAYRTFHALKGLTTSRGEPVQAVYGFAKSLLKALKEGGDAVIVVFDAKAPSFPHEAYGGYKAGRAPTPEDFPRQLALIKELVDLLGLTRLEVPGYEADDVLASLAKKAEKEGYEVRILTADKDLYQLLSDRIHVLHPEGYLITPAWLWEKYGLRPDQWADYRALTGDESDNLPGVKGIGEKTARKLLEEWGSLEALLKNLDRLKPAIREKILAHMDDLKLSWDRAKVRTDLPLEVDFAKRREPDRERLRAFLERLEFGSLLHEFGLLESPKALEEAPWPPPEGAFVGFVLSRKEPMWADLLALAAARGGRVHRAPEPYKALGDLKEARGLLAKDLSVLALREGLGLPPDDDPMLLAYLLDPSNTTPEGVARRYGGEWTEEAGERAALSERLFANLWGRLEGEERLLWLYREVERPLSAVLAHMEATGVRLDVAYLRALSLEVAEEIARLEAEVFRLAGHPFNLNSRDQLERVLFDELGLPAIGKTEKTGKRSTSAAVLGALREAHPIVEKILQYRELTKLKSTYIDPLPDLIHPRTGRLHTRFNQTATATGRLSSSDPNLQSIPVRTPLGQRIRRAFIAEEGWLLVALDYSQIELRVLAHLSGDENLIRVFQEGRDIHTETASWMFGVPREAVDPLMRRAAKTINFGVLYGMSAHRLSQELAIPYEEAQAFIKRYFQSFPKVRAWIEKTLEEGRRRGYVETLFGRRRYVPDLEARVKSVREPAERMAFNMPVQGTAADLMKLAMVKLFPRLEEMGARMLLQVHDELVLEAPKERAEAVARLAKEVMEGVYPLAVPLEVEVGIGEDWLSAKE
modifications: Mutant Thermus aquaticus DNA polymerase
With B1 the Km ([1]; base pair C: dCTP) was 1390 µM, the “Ratio of finc, finc (mutant polymerase)/finc (wtTaq)” value (“Ratio of finc, finc” below) ([1]; base pair C: dCTP) was 29 and 29.22 and the “finc, f (incorrect dNTP)/f (correct dNTP)” value (shortened to “finc, f (incorrect dNTP)/f”) ([1]; base pair C: dCTP) was 1.13 × 10^−6. It also gave a Vmax ([1]; base pair C: dCTP (template base: incoming nucleotide)) of 52.63 % Min^−1, a Vmax ([1]; base pair C: dGTP (template base: incoming nucleotide), correct dNTP) of 335.42 % Min^−1 and a Km ([1]; base pair C: dGTP, correct dNTP) of 0.01 µM. The Km ([1]; base pair G: dATP) was 158 µM, the “Ratio of finc, finc” value ([1]; base pair G: dATP) was 2.18 and the “finc, f (incorrect dNTP)/f” value ([1]; base pair G: dATP) was 1.80 × 10^−4. For the same molecule, the Vmax ([1]; base pair G: dATP (template base: incoming nucleotide)) was 1935.48 % Min^−1, the Vmax ([1]; base pair G: dCTP (template base: incoming nucleotide), correct dNTP) was 817 % Min^−1 and the Km ([1]; base pair G: dCTP, correct dNTP) was 0.012 µM. The Km ([1]; base pair G: dGTP) was 82.3 µM, the “Ratio of finc, finc” value ([1]; base pair G: dGTP) was 68.82 and the “finc, f (incorrect dNTP)/f” value ([1]; base pair G: dGTP) was 1.17 × 10^−4. For the same molecule, the Vmax ([1]; base pair G: dGTP (template base: incoming nucleotide)) was 656.46 % Min^−1, the Km ([1]; base pair G: dTTP) was 5.1 µM and the “Ratio of finc, finc” value ([1]; base pair G: dTTP) was 1.1. For the same molecule, the “finc, f (incorrect dNTP)/f” value ([1]; base pair G: dTTP) was 1.82 × 10^−4, the Vmax ([1]; base pair G: dTTP (template base: incoming nucleotide)) was 63.20 % Min^−1 and the “CPD bypass in primer extension” value [2] was “able to readily extend all of the primer to the 3′T of the dimer”. For the same molecule, the “dissociation constants for matched and mismatched primer-template duplex” value [3] was “indistinguishable”, the “abasic site bypass in primer extension” value [4] was “able to extend past the lesion and to the end of the template” and the “primer extension on undamaged template” value (undamaged template) was “efficiently and rapidly extended primers to the end of the template”.
